{"source": "paper PMC2699888", "about": "(Oncogene, 2006)", "molecular_target": "purified human PCNA (human, UniProt P12004 1-261)", "sequence (P12004 whole entry)": "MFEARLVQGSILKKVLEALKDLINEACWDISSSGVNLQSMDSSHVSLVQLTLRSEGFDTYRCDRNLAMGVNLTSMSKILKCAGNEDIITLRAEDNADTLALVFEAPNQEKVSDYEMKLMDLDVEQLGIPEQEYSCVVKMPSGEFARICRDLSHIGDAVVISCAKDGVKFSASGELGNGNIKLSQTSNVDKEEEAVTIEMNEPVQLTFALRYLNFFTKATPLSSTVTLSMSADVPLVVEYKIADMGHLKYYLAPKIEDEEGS", "experiment": "ELISA", "note": "Ends that are not written are not given here. * marks the point of attachment. Biotin = O=C1N[C@H]2[C@H](CS[C@H]2CCCCC(=O)*)N1"}
{"binder": "Biotin-SGSGDPDCGCSRRGCVLRMIRRRN (cysteine pairing not given here)", "note": "[pep102, biotinylated synthetic peptide]", "values": [{"measurement": "binding result", "value": "binds"}]}
{"binder": "Biotin-SGSGDPLWCQSAVFLIRMWLRSRN", "note": "[pep103, biotinylated synthetic peptide]", "values": [{"measurement": "binding result", "value": "binds"}]}
{"binder": "Biotin-SGSGKLFNLHINSAVLQKKITDYF", "note": "[pogo, biotinylated peptide derived from the Drosophila Pogo transposase]", "values": [{"measurement": "binding result", "value": "binds"}]}
